Laboratory results from patent US20040142470, “Recombinase-based system for construction of adenovirus vectors” (published 2004).

Target: Cre recombinase (UniProt P06956 P06956:1-343)
Test: cell_activity; plaque formation in cotransfected 293Cre4 cells relative to homologous recombination; pCA36loxΔ gave plaques only in 293Cre cells (Table 2)
Details: tags: stably expressed in 293Cre4 cells or from shuttle plasmid cassette (pLC2); chain copies: 4; BamHI/BglII overhangs
From the text: The efficiency of Cre/lox mediated recombination was compared with that of homologous recombination, by measuring the numbers of virus plaques obtained from cotransfections of 293 cells versus the numbers obtained following cotransfections of 293Cre4 cells (see, for example, U.S. patent application Ser. No. 08/473,168, filed Jun. 7, 1995; see also WO96/40955, hereby incorporated by reference).

Cre recombinase, sequence (P06956 whole entry, one chain of several): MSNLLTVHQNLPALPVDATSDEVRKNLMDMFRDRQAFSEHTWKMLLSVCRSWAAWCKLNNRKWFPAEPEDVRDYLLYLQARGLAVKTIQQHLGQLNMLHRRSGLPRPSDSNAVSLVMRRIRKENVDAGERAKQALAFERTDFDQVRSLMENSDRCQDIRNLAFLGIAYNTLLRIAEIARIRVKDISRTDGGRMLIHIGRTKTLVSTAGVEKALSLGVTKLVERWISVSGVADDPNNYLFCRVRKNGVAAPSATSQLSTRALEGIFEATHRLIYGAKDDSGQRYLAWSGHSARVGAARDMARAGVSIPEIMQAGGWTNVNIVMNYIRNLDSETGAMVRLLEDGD

B1: loxP linker AB3233/3234 (in pBHG10lox and pCA36lox / pCA36loxΔ) (dsDNA)
DNA 1: GATCCAATAACTTCGTATAGCATACATTATACGAAGTTATAAGTACTGAATTCG
DNA 2: GATCCGAATTCAGTACTTATAACTTCGTATAATGTATGCTATACGAAGTTATTG
relative plaque formation efficiency: 35 fold
